From patent US20080248043A1 (Amgen, published 2008)
Numbering of substitutions follows the chain as printed.

B1: 6B5 (antibody, V domains shown)
VH: not shown
VL: DIQMTQSPSSLSASVGDRVTITCRASQGIRSDLGWYQQRPGKTPKRLIYAASSLQSGVPSRFSGSGSGTEFTLTISSLQPEDFATYYCQQYNSYPLTFGGGTKVEIK
B2: 3F3 (antibody, V domains shown)
VH: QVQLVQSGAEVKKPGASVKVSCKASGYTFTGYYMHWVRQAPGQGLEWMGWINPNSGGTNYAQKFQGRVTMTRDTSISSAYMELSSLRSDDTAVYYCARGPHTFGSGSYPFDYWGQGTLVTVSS
VL: B1 VL with K42N
B3: 4A10 (antibody, V domains shown)
VH: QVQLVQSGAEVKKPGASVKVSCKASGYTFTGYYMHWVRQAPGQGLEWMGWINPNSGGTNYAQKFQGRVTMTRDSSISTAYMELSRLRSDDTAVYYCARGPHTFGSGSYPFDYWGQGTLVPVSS
VL: B1 VL with M4L
B4: 4E2 (antibody, V domains shown)
VH: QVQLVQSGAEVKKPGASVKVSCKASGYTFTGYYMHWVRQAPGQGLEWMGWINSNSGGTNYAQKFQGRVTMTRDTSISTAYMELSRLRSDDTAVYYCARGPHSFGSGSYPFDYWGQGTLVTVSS
VL: B1 VL
B5: 4G2 (antibody, V domains shown)
VH: QVQLVQSGAEVKKPGASVKVSCKASGFPFTDYYMHWVRQAPGQGLEWMGWINSNSGGTNYAQKFQGRVTMTRDTSISTAYMELSRLRSDDTAVYYCARGPHSFGSGSYPFDYWGQGTLVTVSS
VL: B1 VL
B6: 5A5 (antibody, V domains shown)
VH: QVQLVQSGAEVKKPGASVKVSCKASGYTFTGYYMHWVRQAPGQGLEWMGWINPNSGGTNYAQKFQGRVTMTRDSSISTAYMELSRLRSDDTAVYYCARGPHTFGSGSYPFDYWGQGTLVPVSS
VL: B1 VL with M4L
B7: 6C1 (antibody, V domains shown)
VH: B5 VH
VL: B1 VL
B8: 6C2 (antibody, V domains shown)
VH: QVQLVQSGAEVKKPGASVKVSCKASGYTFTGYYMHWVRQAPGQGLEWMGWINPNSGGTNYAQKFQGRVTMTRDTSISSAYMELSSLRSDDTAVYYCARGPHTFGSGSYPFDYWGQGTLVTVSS
VL: B1 VL with K42N
B9: 5E4 (antibody, V domains shown)
VH: QVHLVQSGAEVKKPGASVKVSCKASGYTFTGYYVHWVRQAPGQGLEWMGWINPNSGGTNYAQKFQGRVTMTRDTSISTAYMELSRLRSDDTAVYFCAGGRYLDYWGQGTLVTVSS
VL: B1 VL with S31N, R39K, T43A, Q89L, L96I, G100Q, K103R, V104L
B10: 3C7 (antibody, V domains shown)
VH: QVQLVESGGGVVQPGTSLRLSCAASGFTFSSYGIHWVRQAPGKGLEWVAVIWYDGSNKFYADSVKGRFTISRDNSKNTLYLQMNSLRAEDTAVYYCARDPLGYCSSTSCSYFDYWGQGTLVTVSS
VL: DIQMTQSPSSVSASVGDRVTITCRASQGISNWLAWYQQKPGKAPKLLIYAASSLQSGVPSRFSGSGSGTDFTLTIRSLQPEDFATYYCQQANNFPLTFGGGTKVEIK
B11: 6B1 (antibody, V domains shown)
VH: B10 VH with Y60H
VL: B10 VL with R76S
B12: 3H12 (antibody, V domains shown)
VH: QVQLQESGPGLVKPSETLSLTCTVSDGSISSFYWSWIRQPPGKGLEWIGYIYYSGSTNYNPSLKSRVTISVDTSKNQFSLKLSSVTAADTAVYYCARDYDILTGYSNYYGMDVWGQGTTVTVSS
VL: B1 VL with S31N, R39K, T43A, Q89L, Y91H, L96F, G100P, V104L, E105D
B13: 1B5 (antibody, V domains shown)
VH: QVQLVESGGGVVQPGRSLRLSCAASGFTFSSYGMHWVRQAPGKGLEWVAVIWYDGSNKYYADSVKGRFTISRDNSKNTLYLQMNSLRAEDTAVYYCARGDFYWFDPWGQGTLVTVSS
VL: B1 VL
B14: 3A7 (antibody, V domains shown)
VH: QVQLVQSGAEVKKPGASVKVSCKASGYTFTSYGISWVRQAPGQGLEWMGWISAYNGNTNYAQKLQGRVTMTTDTSTSTAYMELRSLRSDDTAVYYCAVGRYLDYWGQGTLVTVSS
VL: B1 VL with G28D, S31N, R39K, T43A, Q89L
B15: 5D6 (antibody, V domains shown)
VH: B14 VH with S77N
VL: B1 VL with G28D, S31N, R39K, T43A, Q89L
B16: 5A7 (antibody, V domains shown)
VH: B14 VH
VL: B1 VL with G28D, S31N, R39K, T43A, Q89L
B17: 5D3 (antibody, V domains shown)
VH: B14 VH
VL: B1 VL with G28D, S31N, R39K, T43A, Q89L
B18: 6B8 (antibody, V domains shown)
VH: B14 VH
VL: B1 VL with G28D, S31N, R39K, T43A, Q89L

Target: S protein of SARS-CoV Urbani strain (on virus) (SARS-CoV Urbani strain, UniProt P59594 14-1255)
Assay: cell-based or functional assay

Binder	Neutralizing titer 200TCID50
B1	3.12 µg/mL
B2	0.781 µg/mL
B3	3.12 µg/mL
B4	0.781 µg/mL
B5	0.781 µg/mL
B6	0.195 µg/mL
B7	0.781 µg/mL
B8	0.781 µg/mL
B9	12.5 µg/mL
B10	12.5 µg/mL
B11	3.12 µg/mL
B12	3.12 µg/mL
B13	0.195 µg/mL
B14	0.195 µg/mL
B15	0.195 µg/mL
B16	0.781 µg/mL
B17	0.195 µg/mL
B18	0.781 µg/mL
